Source: patent US20180142007A1 (published 2018)
Numbering of substitutions follows the chain as printed. Like-named read-outs stand apart in the source and are kept apart here.

Tests used:
[1] = target: T1, misdisordered truncated tau 151-391/4R (UniProt P10636 468-708); assay: SPR
[2] = target: T2, full length physiological tau 2N4R (UniProt P10636 1-758); assay: SPR
[3] = target: T1, misdisordered truncated tau 151-391/4R; assay: SPR; remark: listed apart in the source
[4] = target: T3, tau peptide 314-342; assay: ELISA
T3 peptide: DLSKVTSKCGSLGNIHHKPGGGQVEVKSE

[5] = target: T4, tau peptide 352-380; assay: ELISA
T4 peptide: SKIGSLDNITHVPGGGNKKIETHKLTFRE

[6] = target: T5, tau peptide 256-285; assay: ELISA
T5 peptide: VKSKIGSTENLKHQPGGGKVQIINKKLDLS

[7] = target: T6, tau peptide 282-311; assay: ELISA
T6 peptide: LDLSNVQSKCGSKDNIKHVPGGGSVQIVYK

[8] = target: T1, misdisordered truncated tau 151-391/4R; assay: SPR; remark: listed apart in the source
[9] = target: T3, tau peptide 314-342; assay: ELISA
[10] = target: T4, tau peptide 352-380; assay: ELISA
[11] = target: T5, tau peptide 256-285; assay: ELISA
[12] = target: T6, tau peptide 282-311; assay: ELISA
[13] = target: T1, misdisordered truncated tau 151-391/4R; assay: ELISA
[14] = target: T3, tau peptide 314-342; assay: ELISA; IgG4
[15] = target: T4, tau peptide 352-380; assay: ELISA; IgG4
[16] = target: T5, tau peptide 256-285; assay: ELISA; IgG4
[17] = target: T2, full length physiological tau 2N4R; assay: SPR; IgG4
[18] = target: T1, misdisordered truncated tau 151-391/4R; assay: SPR; IgG4
[19] = target: T3, tau peptide 314-342; assay: ELISA
[20] = target: T4, tau peptide 352-380; assay: ELISA
[21] = target: T6, tau peptide 282-311; assay: ELISA
[22] = target: T2, full length physiological tau 2N4R; assay: ELISA; IgG1
[23] = target: T1, misdisordered truncated tau 151-391/4R; assay: ELISA; IgG1
[24] = target: T5, tau peptide 256-285; assay: ELISA
[25] = target: T2, full length physiological tau 2N4R; assay: SPR; IgG1
[26] = target: T1, misdisordered truncated tau 151-391/4R; assay: SPR; IgG1
[27] = target: T1, misdisordered truncated tau 151-391/4R; assay: SPR; remark: listed apart in the source
[28] = target: T1, misdisordered truncated tau 151-391/4R; assay: SPR; remark: listed apart in the source
[29] = target: T1, misdisordered truncated tau 151-391/4R; assay: SPR; remark: listed apart in the source

T1 sequence (P10636 468-708): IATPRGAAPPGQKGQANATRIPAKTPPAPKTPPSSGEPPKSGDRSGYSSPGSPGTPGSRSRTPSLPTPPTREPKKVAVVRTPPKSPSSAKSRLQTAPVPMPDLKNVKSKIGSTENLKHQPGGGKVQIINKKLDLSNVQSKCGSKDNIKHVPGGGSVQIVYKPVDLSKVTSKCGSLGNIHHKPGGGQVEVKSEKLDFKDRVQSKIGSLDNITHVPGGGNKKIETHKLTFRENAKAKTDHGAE
T2 sequence (P10636 other isoform, or with tags, fused parts or gaps): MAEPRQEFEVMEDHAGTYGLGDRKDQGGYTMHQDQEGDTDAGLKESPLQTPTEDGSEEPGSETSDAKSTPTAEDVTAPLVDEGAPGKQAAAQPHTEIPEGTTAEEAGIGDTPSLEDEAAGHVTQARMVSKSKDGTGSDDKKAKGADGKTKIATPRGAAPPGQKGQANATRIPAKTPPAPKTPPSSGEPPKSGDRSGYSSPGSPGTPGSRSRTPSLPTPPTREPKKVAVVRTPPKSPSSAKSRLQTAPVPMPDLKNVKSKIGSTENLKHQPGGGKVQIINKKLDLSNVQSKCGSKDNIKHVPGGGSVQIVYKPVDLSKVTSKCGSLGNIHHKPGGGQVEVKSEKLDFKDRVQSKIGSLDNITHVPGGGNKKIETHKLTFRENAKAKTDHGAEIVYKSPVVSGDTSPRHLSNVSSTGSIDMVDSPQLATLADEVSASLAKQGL

B1: chimeric DC8E8 (isotype not stated where tested) (antibody)
VH: QVQLQQSGPELVKPGTSVKMPCKASGYIFTDYVISWVKQRTGQGLEWIGEIFPRSGSTYYNEKFKGKATLTADKSSNTAYMQLSSVTSEDSAVYFCARDYYGTSFAMDYWGQGTSVTVSS
light: DIVMSQSPSSLAVSAGEKVTMSCKSSQSLLNSRTRKNYLAWYQQKPGQSPKLLIYWASTRESGVPDRFTGSGSGTDFTLTISSVQAEDLAVYYCKQSFYLRTFGGGTKLDIKRTVAAPSVFIFPPSDEQLKSGTASVVCLLNNFYPREAKVQWKVDNALQSGNSQESVTEQDSKDSTYSLSSTLTLSKADYEKHKVYACEVTHQGLSSPVTKSFNRGEC
- Kd [1]: 10.4 nM
- Ka [2]: 4.4e+07 M⁻¹
- Ka [3]: 4.2e+08 M⁻¹
- EC50 [4]: 0.0173 µg/mL
- EC50 [5]: 0.087 µg/mL
- EC50 [6]: 0.0212 µg/mL
- EC50 [7]: 0.00731 µg/mL
- Kd [8]: 10.4 nM
- EC50 [9]: 0.0265 µg/mL
- EC50 [10]: 0.0814 µg/mL
- EC50 [11]: 0.0297 µg/mL
- EC50 [12]: 0.00852 µg/mL

B2: chimeric DC8E8, human IgG4/kappa (antibody)
heavy: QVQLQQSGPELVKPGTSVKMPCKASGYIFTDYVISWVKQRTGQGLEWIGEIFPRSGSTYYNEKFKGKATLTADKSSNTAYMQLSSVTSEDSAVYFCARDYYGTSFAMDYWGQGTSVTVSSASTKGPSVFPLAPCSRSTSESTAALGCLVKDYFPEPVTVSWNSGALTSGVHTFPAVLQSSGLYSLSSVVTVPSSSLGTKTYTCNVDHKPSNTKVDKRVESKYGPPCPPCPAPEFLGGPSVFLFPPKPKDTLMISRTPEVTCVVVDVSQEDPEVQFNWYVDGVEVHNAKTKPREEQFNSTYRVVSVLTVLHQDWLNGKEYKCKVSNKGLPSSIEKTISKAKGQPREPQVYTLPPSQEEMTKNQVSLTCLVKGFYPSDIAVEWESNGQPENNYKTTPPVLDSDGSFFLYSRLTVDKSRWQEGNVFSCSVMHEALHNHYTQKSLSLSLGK
light: B1 light
- EC50 [13]: 0.0507 µg/mL

B3: chimeric DC8E8, human IgG1/kappa (antibody)
heavy: not shown
light: B1 light
- EC50 [13]: 0.0214 µg/mL

B4: AX016-IgG4, humanized DC8E8 RHD/RKB, IgG4 isotype (antibody)
heavy: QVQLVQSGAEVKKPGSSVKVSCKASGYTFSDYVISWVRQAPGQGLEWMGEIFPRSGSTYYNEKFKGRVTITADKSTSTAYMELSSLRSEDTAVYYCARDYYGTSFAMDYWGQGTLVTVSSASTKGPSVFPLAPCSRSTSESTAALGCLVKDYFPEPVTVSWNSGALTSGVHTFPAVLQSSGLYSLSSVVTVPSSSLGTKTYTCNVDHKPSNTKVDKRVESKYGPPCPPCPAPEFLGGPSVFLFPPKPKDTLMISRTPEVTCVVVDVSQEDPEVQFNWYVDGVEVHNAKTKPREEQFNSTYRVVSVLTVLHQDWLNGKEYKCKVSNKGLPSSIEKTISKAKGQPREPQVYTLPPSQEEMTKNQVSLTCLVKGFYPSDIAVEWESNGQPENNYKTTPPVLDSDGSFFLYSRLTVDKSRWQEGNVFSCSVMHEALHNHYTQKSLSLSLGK
light: DIVMSQSPLSLPVTPGEPASISCKSSQSLLNSRTRKNYLAWYLQKPGQSPQLLIYWASTRESGVPDRFTGSGSGTDFTLKISRVEAEDVGVYYCKQSFYLRTFGQGTKVEIKRTVAAPSVFIFPPSDEQLKSGTASVVCLLNNFYPREAKVQWKVDNALQSGNSQESVTEQDSKDSTYSLSSTLTLSKADYEKHKVYACEVTHQGLSSPVTKSFNRGEC
- EC50 [14]: 0.0153 µg/mL
- EC50 [15]: 0.085 µg/mL
- EC50 [16]: 0.0139 µg/mL
- Ka [17]: 6.6e+07 M⁻¹
- Ka [18]: 7.2e+08 M⁻¹
- EC50 [12]: 0.00756 µg/mL

B5: AX017-IgG1, humanized DC8E8 RHE/RKB, IgG1 isotype (antibody)
heavy: not shown
light: B4 light
- EC50 [19]: 0.096 µg/mL
- EC50 [20]: 0.883 µg/mL
- EC50 [21]: 0.00766 µg/mL

B6: AX016-IgG1, humanized DC8E8 RHD/RKB, IgG1 isotype (antibody)
heavy: not shown
light: B4 light
- EC50 [22]: 0.0513 µg/mL
- EC50 [23]: 0.0137 µg/mL
- EC50 [19]: 0.0122 µg/mL
- EC50 [20]: 0.0566 µg/mL
- EC50 [24]: 0.0117 µg/mL
- EC50 [21]: 0.00647 µg/mL
- Ka [25]: 1.9e+08 M⁻¹
- Ka [26]: 1.6e+09 M⁻¹

B7: AX005-IgG4, humanized DC8E8 RHE/RKA, IgG4 isotype (antibody)
heavy: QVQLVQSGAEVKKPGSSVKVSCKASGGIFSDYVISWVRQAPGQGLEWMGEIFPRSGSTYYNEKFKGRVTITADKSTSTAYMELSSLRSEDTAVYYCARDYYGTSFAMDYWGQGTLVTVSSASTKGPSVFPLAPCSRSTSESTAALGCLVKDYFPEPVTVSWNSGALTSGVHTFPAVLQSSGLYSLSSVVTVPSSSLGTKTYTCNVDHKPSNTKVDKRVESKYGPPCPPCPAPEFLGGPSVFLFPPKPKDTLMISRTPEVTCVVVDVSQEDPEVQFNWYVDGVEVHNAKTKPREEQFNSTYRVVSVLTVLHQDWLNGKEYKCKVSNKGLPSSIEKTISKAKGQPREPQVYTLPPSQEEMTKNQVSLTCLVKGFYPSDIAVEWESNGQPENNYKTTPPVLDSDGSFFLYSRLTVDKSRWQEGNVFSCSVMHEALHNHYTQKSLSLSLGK
light: B4 light with S5T
- EC50 [14]: 0.0745 µg/mL
- EC50 [15]: 0.397 µg/mL
- EC50 [12]: 0.00898 µg/mL

B8: AX004, humanized DC8E8 RHD/RKA (isotype not stated where tested) (antibody)
VH: QVQLVQSGAEVKKPGSSVKVSCKASGYTFSDYVISWVRQAPGQGLEWMGEIFPRSGSTYYNEKFKGRVTITADKSTSTAYMELSSLRSEDTAVYYCARDYYGTSFAMDYWGQGTLVTVSS
light: B4 light with S5T
- Kd [8]: 14.7 nM
- Kd [27]: 14.7 nM

B9: AX005-IgG1, humanized DC8E8 RHE/RKA, IgG1 isotype (antibody)
heavy: not shown
light: B4 light with S5T
- EC50 [19]: 0.0562 µg/mL
- EC50 [20]: 0.579 µg/mL
- EC50 [21]: 0.0068 µg/mL

B10: AX004-IgG4, humanized DC8E8 RHD/RKA, IgG4 isotype (antibody)
heavy: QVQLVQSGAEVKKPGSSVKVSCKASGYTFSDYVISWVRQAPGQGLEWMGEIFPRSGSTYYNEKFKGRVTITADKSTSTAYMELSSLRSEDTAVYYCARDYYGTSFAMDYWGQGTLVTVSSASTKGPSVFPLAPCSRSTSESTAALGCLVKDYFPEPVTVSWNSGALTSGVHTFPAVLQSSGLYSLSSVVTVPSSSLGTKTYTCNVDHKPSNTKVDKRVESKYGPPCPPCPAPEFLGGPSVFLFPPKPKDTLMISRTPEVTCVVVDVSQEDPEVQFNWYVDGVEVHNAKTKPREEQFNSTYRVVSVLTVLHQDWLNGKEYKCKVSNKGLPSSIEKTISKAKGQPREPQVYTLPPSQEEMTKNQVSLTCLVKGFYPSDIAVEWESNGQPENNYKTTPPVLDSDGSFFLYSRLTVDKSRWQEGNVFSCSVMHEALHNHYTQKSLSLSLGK
light: B4 light with S5T
- EC50 [14]: 0.013 µg/mL
- EC50 [15]: 0.0814 µg/mL
- EC50 [16]: 0.0132 µg/mL
- Ka [17]: 6.5e+07 M⁻¹
- Ka [18]: 7.75e+08 M⁻¹
- EC50 [12]: 0.0067 µg/mL

B11: AX004-IgG1, humanized DC8E8 RHD/RKA, IgG1 isotype (antibody)
heavy: not shown
light: B4 light with S5T
- EC50 [22]: 0.0532 µg/mL
- EC50 [23]: 0.0147 µg/mL
- EC50 [19]: 0.0118 µg/mL
- EC50 [20]: 0.0587 µg/mL
- EC50 [24]: 0.0121 µg/mL
- EC50 [21]: 0.00598 µg/mL
- Ka [25]: 1.1e+08 M⁻¹
- Ka [26]: 1.6e+09 M⁻¹

B12: AX016, humanized DC8E8 RHD/RKB (isotype not stated where tested) (antibody)
VH: B8 VH
light: B4 light
- Kd [28]: 9.39 nM
- Kd [8]: 9.39 nM

B13: AX017-IgG4, humanized DC8E8 RHE/RKB, IgG4 isotype (antibody)
heavy: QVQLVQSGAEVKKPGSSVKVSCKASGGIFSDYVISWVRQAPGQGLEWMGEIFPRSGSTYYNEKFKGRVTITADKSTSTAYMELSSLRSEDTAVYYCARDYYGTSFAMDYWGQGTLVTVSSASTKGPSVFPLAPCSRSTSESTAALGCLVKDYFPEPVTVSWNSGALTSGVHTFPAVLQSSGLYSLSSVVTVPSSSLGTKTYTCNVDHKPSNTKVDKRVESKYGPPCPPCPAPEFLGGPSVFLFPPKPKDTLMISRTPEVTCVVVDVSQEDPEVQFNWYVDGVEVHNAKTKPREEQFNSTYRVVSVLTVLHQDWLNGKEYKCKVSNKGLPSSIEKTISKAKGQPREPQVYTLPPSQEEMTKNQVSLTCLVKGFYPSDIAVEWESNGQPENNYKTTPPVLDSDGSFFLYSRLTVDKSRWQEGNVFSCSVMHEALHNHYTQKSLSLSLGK
light: B4 light
- EC50 [14]: 0.0726 µg/mL
- EC50 [15]: 0.385 µg/mL
- EC50 [12]: 0.00901 µg/mL

B14: mouse monoclonal antibody DC8E8 (antibody)
heavy: QVQLQQSGPELVKPGTSVKMPCKASGYIFTDYVISWVKQRTGQGLEWIGEIFPRSGSTYYNEKFKGKATLTADKSSNTAYMQLSSVTSEDSAVYFCARDYYGTSFAMDYWGQGTSVTVSSAKTTPPSVYPLAPGSAAQTNSMVTLGCLVKGYFPEPVTVTWNSGSLSSGVHTFPAVLQSDLYTLSSSVTVPSSTWPSQTVTCNVAHPASSTKVDKKIVPRDCGCKPCICTVPEVSSVFIFPPKPKDVLTITLTPKVTCVVVDISKDDPEVQFSWFVDDVEVHTAQTKPREEQINSTFRSVSELPIMHQDWLNGKEFKCRVNSAAFPAPIEKTISKTKGRPKAPQVYTIPPPKEQMAKDKVSLTCMITNFFPEDITVEWQWNGQPAENYKNTQPIMDTDGSYFVYSKLNVQKSNWEAGNTFTCSVLHEGLHNHHTEKSLSHSPGK
VL: DIVMSQSPSSLAVSAGEKVTMSCKSSQSLLNSRTRKNYLAWYQQKPGQSPKLLIYWASTRESGVPDRFTGSGSGTDFTLTISSVQAEDLAVYYCKQSFYLRTFGGGTKLDIK
- EC50 [13]: 0.0448 µg/mL
- Ka [2]: 3.9e+07 M⁻¹
- Ka [3]: 1.9e+08 M⁻¹
- EC50 [4]: 0.039 µg/mL
- EC50 [5]: 0.213 µg/mL
- EC50 [6]: 0.0433 µg/mL
- EC50 [7]: 0.0118 µg/mL
- Kd [8]: 10.4 nM
- Kd [29]: 10.4 nM
